In US20240279281A1, “Peptide Inhibitors of Interleukin-23 Receptor” (Janssen Pharmaceutica NV, priority 2023, published 2024):
Each block holds one binder with its values, some of them ahead of it. Starred links: 1 amine or outer side, 2 acyl side, 3 side chain; linkers in the order of their positions; H or OH if unused. Positions of bridges follow the written chain, without caps; N, C: chain ends. Non-standard residues stand in square brackets, D forms with d. No end group written: not given here. *: point of attachment. X1 = 3‑(7-(3-acetamidophenyl)-1H-indol-3-yl)‑2‑aminopropanoic acid, CC(=O)Nc1cccc(-c2cccc3c(CC(N[*:1])C(=O)[*:2])c[nH]c23)c1; X3 = 4‑(2-(4-(2-amino-2-carboxyethyl)phenoxy)ethyl)‑4‑methylmorpholin‑4‑ium, C[N+]1(CCOc2ccc(CC(N[*:1])C(=O)[*:2])cc2)CCOCC1; X10 = 2‑amino‑3‑(4-(2-guanidinoethoxy)phenyl)propanoic acid, N=C(N)NCCOc1ccc(CC(N[*:1])C(=O)[*:2])cc1; X11 = 2‑amino‑3‑(2-hydroxyquinolin-6-yl)propanoic acid, O=C(C(Cc1ccc2nc(O[*:3])ccc2c1)N[*:1])[*:2]; X7 = 2‑amino‑3‑(5-methylpyridin-3-yl)propanoic acid, Cc1cncc(CC(N[*:1])C(=O)[*:2])c1; Trp(7-(3-AcNH-Ph)) = CC(=O)Nc1cccc(-c2cccc3c(C[C@H](N)C(=O)O)c[nH]c23)c1; 2Nal(6-OH) = N[C@@H](Cc1ccc2cc(O)ccc2c1)C(=O)O; Trp(7-Me) = Cc1cccc2c(C[C@H](N)C(=O)O)c[nH]c12; dLys(Me3) = C[N+](C)(C)CCCC[C@@H](N)C(=O)O; AEF = NCCOc1ccc(C[C@H](N)C(=O)O)cc1; 3Pal = N[C@@H](Cc1cccnc1)C(=O)O; Pen = CC(C)(S)[C@H](N)C(=O)O; αMeC = C[C@](N)(CS)C(=O)O; Thp = NC1(C(=O)O)CCOCC1; Abu = CC[C@H](N)C(=O)O; Propionyl = CCC(=O)*; Sar = CNCC(=O)O

Biological target: T1, interleukin-23 receptor (IL-23R), Q5VWK5
T1 chain: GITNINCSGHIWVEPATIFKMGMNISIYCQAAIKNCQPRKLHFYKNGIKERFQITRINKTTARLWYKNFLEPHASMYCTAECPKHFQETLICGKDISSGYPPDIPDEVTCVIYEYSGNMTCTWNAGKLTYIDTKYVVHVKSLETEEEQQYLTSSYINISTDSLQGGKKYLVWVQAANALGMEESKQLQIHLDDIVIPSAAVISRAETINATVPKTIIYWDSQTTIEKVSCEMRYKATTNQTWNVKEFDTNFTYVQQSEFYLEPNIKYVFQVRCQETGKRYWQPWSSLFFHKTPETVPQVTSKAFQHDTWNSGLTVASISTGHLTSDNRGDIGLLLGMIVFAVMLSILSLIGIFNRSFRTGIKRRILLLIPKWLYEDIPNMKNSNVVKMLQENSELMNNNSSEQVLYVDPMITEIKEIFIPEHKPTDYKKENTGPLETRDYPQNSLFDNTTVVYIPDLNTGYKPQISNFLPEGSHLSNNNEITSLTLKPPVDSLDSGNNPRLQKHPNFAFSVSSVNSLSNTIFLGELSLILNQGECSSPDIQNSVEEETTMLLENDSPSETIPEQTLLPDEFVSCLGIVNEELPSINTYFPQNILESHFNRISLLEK
Test: cell-based or functional assay

B2: SEQ ID NO: 95 (peptide)
peptide: [Pen]NT[Trp(7-Me)]K(Ac)[Pen][AEF][2Nal(6-OH)][Thp]KN[3Pal][Sar]
modifications: disulfide 1-6 (inferred); not fully specified (residue 10); ends not checked; also: K10: lipidated lysine, lipid not given here
IL23R Reporter Assay IC50: < 10 nM
PBMC pSTAT3 IC50: < 0.1 nM

B3: SEQ ID NO: 92 (peptide)
peptide: R[Pen]NT[Trp(7-Me)]K(Ac)[Pen][2‑amino‑3‑(4-(2-aminoethoxy)phenyl)propanoic acid][2‑amino‑3‑(6-hydroxynaphthalen-2-yl)propanoic acid][Thp]EN[3Pal][Sar]K
modifications: disulfide 2-7 (inferred); not fully specified (residue 15); ends not checked; also: K15: lipidated lysine, lipid not given here
IL23R Reporter Assay IC50: < 10 nM
PBMC pSTAT3 IC50: < 0.1 nM

B4: SEQ ID NO: 90 (peptide)
peptide: K[Pen]NT[Trp(7-Me)]K(Ac)[Pen][2‑amino‑3‑(4-(2-aminoethoxy)phenyl)propanoic acid][2‑amino‑3‑(6-hydroxynaphthalen-2-yl)propanoic acid][Thp]EN[3Pal][Sar]
modifications: disulfide 2-7 (inferred); not fully specified (residue 1); ends not checked; also: K1: lipidated lysine, lipid not given here
IL23R Reporter Assay IC50: < 10 nM
PBMC pSTAT3 IC50: < 0.1 nM

B7: SEQ ID NO: 10 (peptide)
peptide: [dK](Propionyl)[Abu]NTWQC[AEF][2Nal(6-OH)][Thp]CN[3Pal][Sar]
modifications: ends and bridges not checked
IL23R Reporter Assay IC50: < 10 nM
PBMC pSTAT3 IC50: < 10 pM

B8: SEQ ID NO: 94 (peptide)
peptide: R[Pen]NT[Trp(7-Me)]K(Ac)[Pen][AEF][2Nal(6-OH)][Thp]EN[3Pal][Sar]
modifications: disulfide 2-7 (inferred); ends not checked
IL23R Reporter Assay IC50: < 10 nM
PBMC pSTAT3 IC50: < 1 nM

B13: SEQ ID NO: 20 (peptide)
peptide: R[Pen]NT[X1]K(Ac)[Pen][5‑(4-(2-amino-2-carboxyethyl)phenoxy)‑N,N,N‑trimethylpentan‑1‑aminium][2‑amino‑3‑(6-hydroxynaphthalen-2-yl)propanoic acid][Thp]EN[X7][Sar]
modifications: ends and bridges not checked
IL23R Reporter Assay IC50: < 10 nM
PBMC pSTAT3 IC50: < 0.1 nM

B14: SEQ ID NO: 2 (peptide)
peptide: RCNT[X1]K(Ac)[αMeC][2‑amino‑3‑(4-(2-aminoethoxy)phenyl)propanoic acid][2‑amino‑3‑(6-hydroxynaphthalen-2-yl)propanoic acid][Thp]EN[3Pal][Sar]
modifications: ends and bridges not checked
IL23R Reporter Assay IC50: < 10 nM

B15: SEQ ID NO: 16 (peptide)
peptide: [Pen]NT[X1]K(Ac)[Pen][X10][2‑amino‑3‑(6-hydroxynaphthalen-2-yl)propanoic acid][Thp]EN[X7][Sar]
modifications: ends and bridges not checked
IL23R Reporter Assay IC50: < 10 nM
PBMC pSTAT3 IC50: < 10 pM

B17: SEQ ID NO: 1 (peptide)
peptide: [dK](Me3)[Abu]NTWK(Ac)[αMeC][X10][2Nal(6-OH)][Thp]EN[3Pal][Sar]
modifications: ends and bridges not checked
IL23R Reporter Assay IC50: < 10 nM

B18: SEQ ID NO: 17 (peptide)
peptide: [dLys(Me3)][Pen]NT[X1]K(Ac)[Pen][5‑(4-(2-amino-2-carboxyethyl)phenoxy)‑N,N,N‑trimethylpentan‑1‑aminium][2‑amino‑3‑(6-hydroxynaphthalen-2-yl)propanoic acid][Thp]EN[X7][Sar]
modifications: ends and bridges not checked
IL23R Reporter Assay IC50: < 10 nM
PBMC pSTAT3 IC50: < 10 pM

B19: SEQ ID NO: 91 (peptide)
peptide: K[Pen]NT[Trp(7-Me)]K(Ac)[Pen][2‑amino‑3‑(4-(2-aminoethoxy)phenyl)propanoic acid][2‑amino‑3‑(6-hydroxynaphthalen-2-yl)propanoic acid][Thp]EN[3Pal][Sar]
modifications: disulfide 2-7 (inferred); not fully specified (residue 1); ends not checked; also: K1: lipidated lysine, lipid not given here
IL23R Reporter Assay IC50: < 10 nM
PBMC pSTAT3 IC50: < 0.1 nM

B20: SEQ ID NO: 98 (peptide)
peptide: [Abu]NTWQC[AEF][2Nal(6-OH)][Thp]EN[3Pal][Sar]
modifications: ends and bridges not checked
IL23R Reporter Assay IC50: < 10 nM
PBMC pSTAT3 IC50: < 10 pM

B21: SEQ ID NO: 89 (peptide)
peptide: R[Pen]KT[Trp(7-Me)]K(Ac)[Pen][2‑amino‑3‑(4-(2-aminoethoxy)phenyl)propanoic acid][2‑amino‑3‑(6-hydroxynaphthalen-2-yl)propanoic acid][Thp]EN[3Pal][Sar]
modifications: disulfide 2-7 (inferred); not fully specified (residue 3); ends not checked; also: K3: lipidated lysine, lipid not given here
IL23R Reporter Assay IC50: < 10 nM
PBMC pSTAT3 IC50: < 0.1 nM

Results, then the binder that gave them:

IL23R Reporter Assay IC50: > 100 nM
PBMC pSTAT3 IC50: < 1 nM
B1: SEQ ID NO: 120 (peptide)
peptide: R[Pen]NT[Trp(7-Me)]K[Pen][AEF][2Nal(6-OH)][Thp]EN[3Pal][Sar]
modifications: disulfide 2-7 (inferred); ends not checked; also: K6: lipidated lysine, lipid not given here

IL23R Reporter Assay IC50: < 10 nM
PBMC pSTAT3 IC50: < 0.1 nM
B5: SEQ ID NO: 149 (peptide)
peptide: [Pen]NT[Trp(7-Me)]K(Ac)[Pen][2‑amino‑3‑(4-(2-aminoethoxy)phenyl)propanoic acid][X11][Thp]EN[3Pal][Sar]
modifications: disulfide 1-6 (inferred); ends not checked

IL23R Reporter Assay IC50: > 100 nM
PBMC pSTAT3 IC50: < 1 nM
B6: SEQ ID NO: 152 (peptide)
peptide: [Pen]NT[X1]K[Pen][2‑amino‑3‑(4-(2-aminoethoxy)phenyl)propanoic acid][2‑amino‑3‑(6-hydroxynaphthalen-2-yl)propanoic acid][Thp]K(Ac)N[3Pal][Sar]
modifications: disulfide 1-6 (inferred); ends not checked; also: Lys5: lipidated lysine, lipid not given here

IL23R Reporter Assay IC50: < 10 nM
PBMC pSTAT3 IC50: < 10 pM
B9: SEQ ID NO: 136 (peptide)
peptide: R[Pen]ET[Trp(7-Me)]K(Ac)[Pen][AEF][2Nal(6-OH)][Thp]EN[3Pal][Sar]
modifications: disulfide 2-7 (inferred); ends not checked

IL23R Reporter Assay IC50: < 10 nM
PBMC pSTAT3 IC50: < 10 pM
B10: SEQ ID NO: 157 (peptide)
peptide: R[Pen]ET[X1]K(Ac)[Pen][2‑amino‑3‑(4-(2-aminoethoxy)phenyl)propanoic acid][2‑amino‑3‑(6-hydroxynaphthalen-2-yl)propanoic acid][Thp]EN[3Pal][Sar]
modifications: disulfide 2-7 (inferred); ends not checked

IL23R Reporter Assay IC50: < 10 nM
PBMC pSTAT3 IC50: < 10 pM
B11: SEQ ID NO: 132 (peptide)
peptide: [Pen]NT[X1]K(Ac)[Pen][AEF][2Nal(6-OH)][Thp]EN[3Pal][Sar]
modifications: disulfide 1-6 (inferred); ends not checked

IL23R Reporter Assay IC50: > 100 nM
PBMC pSTAT3 IC50: < 1 nM
B12: SEQ ID NO: 154 (peptide)
peptide: R[Pen]NT[X1]K[Pen][2‑amino‑3‑(4-(2-aminoethoxy)phenyl)propanoic acid][2‑amino‑3‑(6-hydroxynaphthalen-2-yl)propanoic acid][Thp]EN[3Pal][Sar]
modifications: disulfide 2-7 (inferred); ends not checked; also: K6: lipidated lysine, lipid not given here

IL23R Reporter Assay IC50: < 10 nM
PBMC pSTAT3 IC50: < 10 pM
B16: SEQ ID NO: 137 (peptide)
peptide: R[Pen]ET[Trp(7-Me)]K(Ac)[Pen][AEF][2Nal(6-OH)][Thp]EN[3Pal][Sar]
modifications: disulfide 2-7 (inferred); ends not checked

IL23R Reporter Assay IC50: < 10 nM
PBMC pSTAT3 IC50: < 10 pM
B22: SEQ ID NO: 100 (peptide)
peptide: [Pen]NT[Trp(7-(3-AcNH-Ph))]K(Ac)[Pen][X3][2Nal(6-OH)][Thp]EN[3Pal][Sar]
modifications: disulfide 1-6 (inferred); ends not checked

IL23R Reporter Assay IC50: > 100 nM
PBMC pSTAT3 IC50: < 1 nM
B23: SEQ ID NO: 130 (peptide)
peptide: [Pen]NT[Trp(7-Me)]K[Pen][AEF][2Nal(6-OH)][Thp]K(Ac)N[3Pal][Sar]
modifications: disulfide 1-6 (inferred); ends not checked; also: K5: lipidated lysine, lipid not given here
